Where no end group is shown, it is not given here.
B1: YGRKKRRQRRRAVAATSINL (SEQ ID NO: 138) (peptide)
peptide: YGRKKRRQRRRAVAATSINL
modifications: also: biotinylated, position not given here
notes: TAT plus 9 residues; also called AVC#1791; AVC 1791
B2: Flag-MUC1-CD(1-68) (other)
chain: CQCRRKNYGQLDIFPARDTYHPMSEYPTYHTHGRYVPPSSTDRSPYEKVSAGNGGSSLSYTNPAVAAT
notes: also called pIRESpuro2-Flag-MUC1-CD(1-68); truncated MUC1 cytoplasmic domain; not shown: Flag tag
B3: MUC1 C-terminus peptide NGGSSLSYTNPAVAATSANL (SEQ ID NO: 96) (peptide)
peptide: NGGSSLSYTNPAVAATSANL
modifications: also: biotinylated, position not given here
notes: also called C-terminus of MUC1; MUC1 peptide
B4: YGRKKRRQRRRARGDRLEIV (SEQ ID NO: 163) (peptide)
peptide: YGRKKRRQRRRARGDRLEIV
modifications: also: biotinylated, position not given here
notes: TAT plus 9 residues; also called AVC#1847
B5: YGRKKRRQRRRARGDRKRWA (SEQ ID NO: 140) (peptide)
peptide: YGRKKRRQRRRARGDRKRWA
modifications: also: biotinylated, position not given here
notes: TAT plus 9 residues; also called AVC#1821
B6: YGRKKRRQRRRARSDRKRIA (SEQ ID NO: 147) (peptide)
peptide: YGRKKRRQRRRARSDRKRIA
modifications: also: biotinylated, position not given here
notes: TAT plus 9 residues; also called AVC#1831
B7: YGRKKRRQRRRARTDRKVEV (SEQ ID NO: 153) (peptide)
peptide: YGRKKRRQRRRARTDRKVEV
modifications: also: biotinylated, position not given here
notes: TAT plus 9 residues; also called AVC#1837
B8: YGRKKRRQRRRARSDRGIWA (SEQ ID NO: 142) (peptide)
peptide: YGRKKRRQRRRARSDRGIWA
modifications: also: biotinylated, position not given here
notes: TAT plus 9 residues; also called AVC#1823
B9: YGRKKRRQRRRARSDRTIIA (SEQ ID NO: 146) (peptide)
peptide: YGRKKRRQRRRARSDRTIIA
modifications: also: biotinylated, position not given here
notes: TAT plus 9 residues; also called AVC#1830
B10: YGRKKRRQRRRARGDRKKIV (SEQ ID NO: 166) (peptide)
peptide: YGRKKRRQRRRARGDRKKIV
modifications: also: biotinylated, position not given here
notes: TAT plus 9 residues; also called AVC#1850
B11: YGRKKRRQRRRARGDRTIIY (SEQ ID NO: 164) (peptide)
peptide: YGRKKRRQRRRARGDRTIIY
modifications: also: biotinylated, position not given here
notes: TAT plus 9 residues; also called AVC#1848
B12: YGRKKRRQRRRARGDRRRIV (SEQ ID NO: 165) (peptide)
peptide: YGRKKRRQRRRARGDRRRIV
modifications: also: biotinylated, position not given here
notes: TAT plus 9 residues; also called AVC#1849
B13: YGRKKRRQRRRARGDRKYIV (SEQ ID NO: 154) (peptide)
peptide: YGRKKRRQRRRARGDRKYIV
modifications: also: biotinylated, position not given here
notes: TAT plus 9 residues; also called AVC#1838
B14: YGRKKRRQRRRARSDRTIWA (SEQ ID NO: 145) (peptide)
peptide: YGRKKRRQRRRARSDRTIWA
modifications: also: biotinylated, position not given here
notes: TAT plus 9 residues; also called AVC#1829
B15: YGRKKRRQRRRARGDRKVPV (SEQ ID NO: 157) (peptide)
peptide: YGRKKRRQRRRARGDRKVPV
modifications: also: biotinylated, position not given here
notes: TAT plus 9 residues; also called AVC#1841
B16: YGRKKRRQRRRARSDRKRIV (SEQ ID NO: 167) (peptide)
peptide: YGRKKRRQRRRARSDRKRIV
modifications: also: biotinylated, position not given here
notes: TAT plus 9 residues; also called AVC#1851
B17: YGRKKRRQRRRARGDRKIRV (SEQ ID NO: 152) (peptide)
peptide: YGRKKRRQRRRARGDRKIRV
modifications: also: biotinylated, position not given here
notes: TAT plus 9 residues; also called AVC#1836
B18: YGRKKRRQRRRARGDRKRWL (SEQ ID NO: 141) (peptide)
peptide: YGRKKRRQRRRARGDRKRWL
modifications: also: biotinylated, position not given here
notes: TAT plus 9 residues; also called AVC#1822
B19: YGRKKRRQRRRARGDRYRIV (SEQ ID NO: 161) (peptide)
peptide: YGRKKRRQRRRARGDRYRIV
modifications: also: biotinylated, position not given here
notes: TAT plus 9 residues; also called AVC#1845
B20: YGRKKRRQRRRQDERRLIVL (SEQ ID NO: 158) (peptide)
peptide: YGRKKRRQRRRQDERRLIVL
modifications: also: biotinylated (position not given here)
notes: TAT plus 9 residues; also called AVC#1842
B21: YGRKKRRQRRRGMTSSSSVV (SEQ ID NO: 169) (peptide)
peptide: YGRKKRRQRRRGMTSSSSVV
modifications: also: biotinylated, position not given here
notes: TAT plus 9 residues; also called AVC#1853
B22: YGRKKRRQRRRQDEEEGIWS (SEQ ID NO: 149) (peptide)
peptide: YGRKKRRQRRRQDEEEGIWS
modifications: also: biotinylated, position not given here
notes: TAT plus 9 residues; also called AVC#1833
B23: YGRKKRRQRRRQDEEETIWA (SEQ ID NO: 144) (peptide)
peptide: YGRKKRRQRRRQDEEETIWA
modifications: also: biotinylated (position not given here)
notes: TAT plus 9 residues; also called AVC#1828
B24: YGRKKRRQRRRSRTDRKYWA (SEQ ID NO: 148) (peptide)
peptide: YGRKKRRQRRRSRTDRKYWA
modifications: also: biotinylated (position not given here)
notes: TAT plus 9 residues; also called AVC#1832
B25: YGRKKRRQRRRSRTDRKYQI (SEQ ID NO: 155) (peptide)
peptide: YGRKKRRQRRRSRTDRKYQI
modifications: also: biotinylated (position not given here)
notes: TAT plus 9 residues; also called AVC#1839
B26: YGRKKRRQRRRAVAATGIWA (SEQ ID NO: 143) (peptide)
peptide: YGRKKRRQRRRAVAATGIWA
modifications: also: biotinylated, position not given here
notes: TAT plus 9 residues; also called AVC#1827
B27: YGRKKRRQRRRKNKDKEYYV (SEQ ID NO: 168) (peptide)
peptide: YGRKKRRQRRRKNKDKEYYV
modifications: also: biotinylated, position not given here
notes: TAT plus 9 residues; also called AVC#1852
B28: YGRKKRRQRRRARGDRLVSL (SEQ ID NO: 159) (peptide)
peptide: YGRKKRRQRRRARGDRLVSL
modifications: also: biotinylated, position not given here
notes: TAT plus 9 residues; also called AVC#1843
B29: YGRKKRRQRRRSRTDRLEYV (SEQ ID NO: 162) (peptide)
peptide: YGRKKRRQRRRSRTDRLEYV
modifications: also: biotinylated (position not given here)
notes: TAT plus 9 residues; also called AVC#1846
B30: YGRKKRRQRRRARGTRLVWV (SEQ ID NO: 160) (peptide)
peptide: YGRKKRRQRRRARGTRLVWV
modifications: also: biotinylated, position not given here
notes: TAT plus 9 residues; also called AVC#1844
B31: YGRKKRRQRRRQDERVETRV (SEQ ID NO: 171) (peptide)
peptide: YGRKKRRQRRRQDERVETRV
modifications: also: biotinylated (position not given here)
notes: TAT plus 9 residues; also called AVC#1855
B32: YGRKKRRQRRRAVAATYSNL (SEQ ID NO: 139) (peptide)
peptide: YGRKKRRQRRRAVAATYSNL
modifications: also: biotinylated, position not given here
notes: TAT plus 9 residues; also called AVC#1793
B33: YGRKKRRQRRRSVTSTSINL (SEQ ID NO: 151) (peptide)
peptide: YGRKKRRQRRRSVTSTSINL
modifications: also: biotinylated (position not given here)
notes: TAT plus 9 residues; also called AVC#1835
B34: YGRKKRRQRRRSRTVREIWA (SEQ ID NO: 150) (peptide)
peptide: YGRKKRRQRRRSRTVREIWA
modifications: also: biotinylated (position not given here)
notes: TAT plus 9 residues; also called AVC#1834
B35: YGRKKRRQRRRARGDVRLML (SEQ ID NO: 156) (peptide)
peptide: YGRKKRRQRRRARGDVRLML
modifications: also: biotinylated, position not given here
notes: TAT plus 9 residues; also called AVC#1840

Molecular target: T1, GST-RIM2 (KIAA0751) PDZ domain 1 (human)
T1 construct: Construct RIM2, PDZ domain 1-pGEX-3X; vector sites BamH1/EcoR1, insert sites BglII/MfeI; also called GST-RIM2 PDZ domain; RIM3 (as printed once)
Experiment: modified ELISA, peptide titration

T1 sequence (chain, as listed by the source): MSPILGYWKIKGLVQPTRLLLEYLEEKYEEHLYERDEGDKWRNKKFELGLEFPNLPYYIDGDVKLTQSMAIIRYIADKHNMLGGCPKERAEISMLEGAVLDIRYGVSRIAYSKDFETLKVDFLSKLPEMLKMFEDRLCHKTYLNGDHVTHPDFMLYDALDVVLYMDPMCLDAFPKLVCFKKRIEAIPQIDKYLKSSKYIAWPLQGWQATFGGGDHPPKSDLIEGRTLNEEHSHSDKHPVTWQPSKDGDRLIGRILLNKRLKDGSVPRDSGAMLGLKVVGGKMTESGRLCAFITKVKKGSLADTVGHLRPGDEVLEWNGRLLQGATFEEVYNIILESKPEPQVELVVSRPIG

| Binder | binding result |
| --- | --- |
| YGRKKRRQRRRAVAAASANL (also: biotinylated, position not given here) [YGRKKRRQRRRAVAAASANL (SEQ ID NO: 135)] | binds |

Molecular target: T1, GST-RIM2 (KIAA0751) PDZ domain 1
Experiment: modified ELISA, GST-PDZ captured by anti-GST, biotinylated peptide titrated

| Binder | EC50 |
| --- | --- |
| YGRKKRRQRRRARGDRKRIV (also: biotinylated, position not given here, also called AVC#1796; AVC 1796) [YGRKKRRQRRRARGDRKRIV (SEQ ID NO: 136)] | 0.02 µM |
| YGRKKRRQRRRQDEEEGIWA (also: biotinylated, position not given here, also called AVC#1790; AVC 1790) [YGRKKRRQRRRQDEEEGIWA (SEQ ID NO: 137)] | 0.005 µM |
| B1 | 0.04 µM |

Molecular target: T2, GST-ZO-1 PDZ domain 2 (human)
T2 construct: also called ZO-1 d2; ZO1 d2
Experiment: as above

T2 sequence (chain, as listed by the source): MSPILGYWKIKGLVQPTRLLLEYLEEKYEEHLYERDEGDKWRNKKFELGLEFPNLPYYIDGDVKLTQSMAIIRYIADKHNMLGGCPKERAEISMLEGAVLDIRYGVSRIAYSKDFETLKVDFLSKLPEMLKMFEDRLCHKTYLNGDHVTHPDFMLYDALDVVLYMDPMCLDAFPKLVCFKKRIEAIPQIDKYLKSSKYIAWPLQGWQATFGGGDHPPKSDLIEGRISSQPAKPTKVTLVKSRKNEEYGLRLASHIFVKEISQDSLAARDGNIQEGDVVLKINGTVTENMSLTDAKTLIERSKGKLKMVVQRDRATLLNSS

| Binder | EC50 |
| --- | --- |
| YGRKKRRQRRRARGDRKRIV (also: biotinylated, position not given here, also called AVC#1796; AVC 1796) [YGRKKRRQRRRARGDRKRIV (SEQ ID NO: 136)] | 0.02 µM |
| YGRKKRRQRRRQDEEEGIWA (also: biotinylated, position not given here, also called AVC#1790; AVC 1790) [YGRKKRRQRRRQDEEEGIWA (SEQ ID NO: 137)] | 0.05 µM |
| B1 | 0.008 µM |

Molecular target: T3, EGFR (UniProt P00533 25-1210)
T3 construct: also called HER1
Experiment: immunoprecipitation with anti-EGFR from lysates of transfected 293 cells, anti-MUC1-CD immunoblot
Experimental: Lysates were subjected to immunoprecipitation with anti-EGFR or IgG as a control.
Equal amounts of cell lysate were incubated with anti-EGFR (Santa Cruz Biotechnology, Santa Cruz, Calif.) or mouse IgG. […] Reactivity was detected with a horseradish peroxidase-conjugated second antibody and chemiluminescence.

| Binder | binding result |
| --- | --- |
| B2 | no binding |

Molecular target: FGFR3 (UniProt P22607 23-806, limits assumed)
Experiment: immunoprecipitation with anti-FGFR3 from lysates of transfected 293 cells, anti-MUC1-CD immunoblot
Experimental: Lysates were subjected to immunoprecipitation with anti-FGFR3 or IgG as a control.
Equal amounts of cell lysate were incubated with anti-FGFR3 or mouse IgG. […] Reactivity was detected with a horseradish peroxidase-conjugated second antibody and chemiluminescence.

Chain of FGFR3 (P22607 23-806 limits assumed): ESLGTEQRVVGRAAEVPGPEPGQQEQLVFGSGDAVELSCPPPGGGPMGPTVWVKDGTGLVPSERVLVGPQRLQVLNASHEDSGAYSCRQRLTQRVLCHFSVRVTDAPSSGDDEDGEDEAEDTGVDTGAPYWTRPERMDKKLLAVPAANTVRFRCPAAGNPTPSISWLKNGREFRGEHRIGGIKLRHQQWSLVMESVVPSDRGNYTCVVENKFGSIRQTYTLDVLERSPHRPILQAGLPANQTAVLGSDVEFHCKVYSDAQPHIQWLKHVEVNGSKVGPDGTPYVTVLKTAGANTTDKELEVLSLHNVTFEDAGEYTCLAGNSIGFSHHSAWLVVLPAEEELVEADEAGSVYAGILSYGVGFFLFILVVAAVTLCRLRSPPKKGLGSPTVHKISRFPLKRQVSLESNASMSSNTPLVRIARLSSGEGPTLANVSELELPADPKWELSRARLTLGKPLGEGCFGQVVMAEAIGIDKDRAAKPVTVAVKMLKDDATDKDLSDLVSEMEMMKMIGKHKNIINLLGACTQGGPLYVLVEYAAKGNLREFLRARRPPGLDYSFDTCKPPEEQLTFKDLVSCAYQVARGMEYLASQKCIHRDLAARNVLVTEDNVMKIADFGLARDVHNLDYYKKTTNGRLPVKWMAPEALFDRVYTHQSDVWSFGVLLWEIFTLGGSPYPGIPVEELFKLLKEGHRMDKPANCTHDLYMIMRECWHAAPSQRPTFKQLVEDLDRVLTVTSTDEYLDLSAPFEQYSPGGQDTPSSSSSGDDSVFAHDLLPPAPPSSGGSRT

| Binder | binding result |
| --- | --- |
| B2 | no binding |

Molecular target: GST-LIM Mystique PDZ domain 1 (human)
Experiment: modified ELISA, GST-PDZ captured by anti-GST, biotinylated MUC1 peptide titrated, HRP-streptavidin
Text: Titrations to determine relative EC₅₀ values: Peptide corresponding to MUC1 was then titrated against a constant amount of the PDZ domain-containing recombinant proteins identified in the first part of this example.

Chain of GST-LIM Mystique PDZ domain 1 (human) (chain, as listed by the source limits assumed): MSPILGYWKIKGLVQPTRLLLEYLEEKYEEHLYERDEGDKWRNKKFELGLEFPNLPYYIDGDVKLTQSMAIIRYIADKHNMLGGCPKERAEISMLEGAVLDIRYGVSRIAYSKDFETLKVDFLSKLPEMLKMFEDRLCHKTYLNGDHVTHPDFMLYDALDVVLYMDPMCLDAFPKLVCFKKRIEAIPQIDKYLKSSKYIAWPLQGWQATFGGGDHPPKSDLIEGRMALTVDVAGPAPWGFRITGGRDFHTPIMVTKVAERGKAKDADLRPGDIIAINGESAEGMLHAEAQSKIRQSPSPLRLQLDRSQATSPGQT

| Binder | EC50 |
| --- | --- |
| B3 | 0.01 µM |

Molecular target: T1, GST-RIM2 (KIAA0751) PDZ domain 1
Experiment: modified ELISA, plated GST-RIM2 PDZ domain, biotinylated peptide 0.001-10 µM, curve fit; Relative EC50

| Binder | EC50 |
| --- | --- |
| YGRKKRRQRRRARGDRKRIV (also: biotinylated, position not given here, also called AVC#1796; AVC 1796) [YGRKKRRQRRRARGDRKRIV (SEQ ID NO: 136)] | 0.02 µM |
| B4 | 0.132 µM |
| B5 | 0.007 µM |
| B6 | 0.045 µM |
| B7 | 0.04 µM |
| B8 | < 0.01 µM |
| B9 | 0.013 µM |
| B10 | 0.047 µM |
| B11 | 0.03 µM |
| B12 | 0.037 µM |
| B13 | 0.013 µM |
| B14 | < 0.01 µM |
| B15 | 0.045 µM |
| B16 | 0.047 µM |
| B17 | 0.01 µM |
| B18 | 0.008 µM |
| B19 | 0.038 µM |
| B20 | 0.078 µM |

| Binder | EC50 |
| --- | --- |
| B21 | 0.135 µM |
| YGRKKRRQRRRQDEEEGIWA (also: biotinylated, position not given here, also called AVC#1790; AVC 1790) [YGRKKRRQRRRQDEEEGIWA (SEQ ID NO: 137)] | 0.005 µM |
| B22 | 0.05 µM |
| B23 | 0.24 µM |
| B24 | < 0.01 µM |
| B25 | 0.022 µM |
| B26 | < 0.01 µM |
| B27 | 0.013 µM |
| B28 | 0.068 µM |
| B29 | 0.01 µM |
| B30 | < 0.01 µM |
| B31 | 0.88 µM |
| B32 | 0.6 µM |
| B1 | 0.04 µM |
| B33 | 0.09 µM |
| B34 | < 0.01 µM |
| YGRKKRRQRRRLQRRRETQV (also: biotinylated, position not given here, TAT plus 9 residues) [YGRKKRRQRRRLQRRRETQV (AVC#1856)] | 0.033 µM |
| B35 | ~0.03 µM |

From patent US20080090770A1 (published 2008)
